In patent publication US20240117018A1:

What was measured:
Experiment in all cases: cell-based or functional assay
[1] = biological target: MuLV envelope (negative control pseudovirus) (MuLV)
[2] = biological target: HIV-1 Env of pseudovirus PVO.4 (HIV-1)
[3] = biological target: HIV-1 Env of pseudovirus X2088_c9 (HIV-1)
[4] = biological target: HIV-1 Env of pseudovirus 3016.v5.c45 (HIV-1)
[5] = biological target: HIV-1 Env of pseudovirus Ce1172_H1 (HIV-1)
[6] = biological target: HIV-1 Env of pseudovirus Du172.17 (HIV-1)
[7] = biological target: HIV-1 Env of pseudovirus 6952.v1.c20 (HIV-1)
[8] = biological target: HIV-1 Env of pseudovirus Q259.d2.17 (HIV-1)
[9] = biological target: HIV-1 Env of pseudovirus AC10.0.29 (HIV-1)
[10] = biological target: HIV-1 Env of pseudovirus CNE20 (HIV-1)
[11] = biological target: HIV-1 Env of pseudovirus 62357_14_D3_4589 (HIV-1)
[12] = biological target: HIV-1 Env of pseudovirus Du422.1 (HIV-1)
[13] = biological target: HIV-1 Env of pseudovirus 191955_A11 (HIV-1)
[14] = biological target: HIV-1 Env of pseudovirus R1166.c01 (HIV-1)
[15] = biological target: HIV-1 Env of pseudovirus 620345.c01 (HIV-1)
[16] = biological target: HIV-1 Env of pseudovirus BJOX028000.10.3 (HIV-1)
[17] = biological target: HIV-1 Env of pseudovirus X1254_c3 (HIV-1)
[18] = biological target: HIV-1 Env of pseudovirus T250-4 (HIV-1)
[19] = biological target: HIV-1 Env of pseudovirus 3103.v3.c10 (HIV-1)
[20] = biological target: HIV-1 Env of pseudovirus Ce1086_B2 (HIV-1)
[21] = biological target: HIV-1 Env of pseudovirus CAP210.2.00.E8 (HIV-1)

N49P7-54TY (antibody)
IC50 (Titer in TZM.bl cells) [1]: > 25 µg/mL | IC80 (Titer in TZM.bl cells) [1]: > 25 µg/mL | MPI [1]: 0 | IC50 (Titer in TZM.bl cells) [2]: 0.079 µg/mL | IC80 (Titer in TZM.bl cells) [2]: 0.314 µg/mL | MPI [2]: 100 | IC50 (Titer in TZM.bl cells) [3]: 0.172 µg/mL | IC80 (Titer in TZM.bl cells) [3]: 0.572 µg/mL | MPI [3]: 100 | IC50 (Titer in TZM.bl cells) [4]: 0.206 µg/mL | IC80 (Titer in TZM.bl cells) [4]: 1.91 µg/mL | MPI [4]: 92 | IC50 (Titer in TZM.bl cells) [5]: > 25 µg/mL | IC80 (Titer in TZM.bl cells) [5]: > 25 µg/mL | MPI [5]: 23 | IC50 (Titer in TZM.bl cells) [6]: 0.124 µg/mL | IC80 (Titer in TZM.bl cells) [6]: 0.529 µg/mL | MPI [6]: 100 | IC50 (Titer in TZM.bl cells) [7]: > 25 µg/mL | IC80 (Titer in TZM.bl cells) [7]: > 25 µg/mL | MPI [7]: 20 | IC50 (Titer in TZM.bl cells) [8]: 0.132 µg/mL | IC80 (Titer in TZM.bl cells) [8]: 1.13 µg/mL | MPI [8]: 95 | IC50 (Titer in TZM.bl cells) [9]: > 25 µg/mL | IC80 (Titer in TZM.bl cells) [9]: > 25 µg/mL | MPI [9]: 40 | IC50 (Titer in TZM.bl cells) [10]: 0.046 µg/mL | IC80 (Titer in TZM.bl cells) [10]: 0.16 µg/mL | MPI [10]: 100 | IC50 (Titer in TZM.bl cells) [11]: 0.055 µg/mL | IC80 (Titer in TZM.bl cells) [11]: 0.192 µg/mL | MPI [11]: 100 | IC50 (Titer in TZM.bl cells) [12]: 0.402 µg/mL | IC80 (Titer in TZM.bl cells) [12]: 2.02 µg/mL | MPI [12]: 96 | IC50 (Titer in TZM.bl cells) [13]: 3.04 µg/mL | IC80 (Titer in TZM.bl cells) [13]: > 25 µg/mL | MPI [13]: 72 | IC50 (Titer in TZM.bl cells) [14]: 0.131 µg/mL | IC80 (Titer in TZM.bl cells) [14]: 0.47 µg/mL | MPI [14]: 100 | IC50 (Titer in TZM.bl cells) [15]: > 25 µg/mL | IC80 (Titer in TZM.bl cells) [15]: > 25 µg/mL | MPI [15]: 0 | IC50 (Titer in TZM.bl cells) [16]: 0.009 µg/mL | IC80 (Titer in TZM.bl cells) [16]: 0.044 µg/mL | MPI [16]: 100 | IC50 (Titer in TZM.bl cells) [17]: 0.145 µg/mL | IC80 (Titer in TZM.bl cells) [17]: 0.599 µg/mL | MPI [17]: 100 | IC50 (Titer in TZM.bl cells) [18]: 1.02 µg/mL | IC80 (Titer in TZM.bl cells) [18]: 19.6 µg/mL | MPI [18]: 83 | IC50 (Titer in TZM.bl cells) [19]: 0.151 µg/mL | IC80 (Titer in TZM.bl cells) [19]: 0.55 µg/mL | MPI [19]: 100 | IC50 (Titer in TZM.bl cells) [20]: 0.067 µg/mL | IC80 (Titer in TZM.bl cells) [20]: 0.339 µg/mL | MPI [20]: 100 | IC50 (Titer in TZM.bl cells) [21]: 0.691 µg/mL | IC80 (Titer in TZM.bl cells) [21]: 3.33 µg/mL | MPI [21]: 97

N49P7YTE (antibody)
IC50 (Titer in TZM.bl cells) [1]: > 50 µg/mL | IC80 (Titer in TZM.bl cells) [1]: > 50 µg/mL | MPI [1]: 4 | IC50 (Titer in TZM.bl cells) [2]: 0.088 µg/mL | IC80 (Titer in TZM.bl cells) [2]: 0.394 µg/mL | MPI [2]: 100 | IC50 (Titer in TZM.bl cells) [3]: 0.329 µg/mL | IC80 (Titer in TZM.bl cells) [3]: 1.06 µg/mL | MPI [3]: 100 | IC50 (Titer in TZM.bl cells) [4]: 1.15 µg/mL | IC80 (Titer in TZM.bl cells) [4]: 9.65 µg/mL | MPI [4]: 89 | IC50 (Titer in TZM.bl cells) [5]: > 50 µg/mL | IC80 (Titer in TZM.bl cells) [5]: > 50 µg/mL | MPI [5]: 12 | IC50 (Titer in TZM.bl cells) [6]: 0.283 µg/mL | IC80 (Titer in TZM.bl cells) [6]: 0.953 µg/mL | MPI [6]: 100 | IC50 (Titer in TZM.bl cells) [7]: > 50 µg/mL | IC80 (Titer in TZM.bl cells) [7]: > 50 µg/mL | MPI [7]: 13 | IC50 (Titer in TZM.bl cells) [8]: 5.34 µg/mL | IC80 (Titer in TZM.bl cells) [8]: 44.1 µg/mL | MPI [8]: 82 | IC50 (Titer in TZM.bl cells) [9]: > 50 µg/mL | IC80 (Titer in TZM.bl cells) [9]: > 50 µg/mL | MPI [9]: 28 | IC50 (Titer in TZM.bl cells) [10]: 0.11 µg/mL | IC80 (Titer in TZM.bl cells) [10]: 0.317 µg/mL | MPI [10]: 99 | IC50 (Titer in TZM.bl cells) [11]: 0.039 µg/mL | IC80 (Titer in TZM.bl cells) [11]: 0.173 µg/mL | MPI [11]: 100 | IC50 (Titer in TZM.bl cells) [12]: 13.2 µg/mL | IC80 (Titer in TZM.bl cells) [12]: > 50 µg/mL | MPI [12]: 76 | IC50 (Titer in TZM.bl cells) [13]: 39 µg/mL | IC80 (Titer in TZM.bl cells) [13]: > 50 µg/mL | MPI [13]: 56 | IC50 (Titer in TZM.bl cells) [14]: 0.232 µg/mL | IC80 (Titer in TZM.bl cells) [14]: 0.782 µg/mL | MPI [14]: 100 | IC50 (Titer in TZM.bl cells) [15]: > 50 µg/mL | IC80 (Titer in TZM.bl cells) [15]: > 50 µg/mL | MPI [15]: 0 | IC50 (Titer in TZM.bl cells) [16]: 0.018 µg/mL | IC80 (Titer in TZM.bl cells) [16]: 0.155 µg/mL | MPI [16]: 100 | IC50 (Titer in TZM.bl cells) [17]: 26.2 µg/mL | IC80 (Titer in TZM.bl cells) [17]: > 50 µg/mL | MPI [17]: 59 | IC50 (Titer in TZM.bl cells) [18]: > 50 µg/mL | IC80 (Titer in TZM.bl cells) [18]: > 50 µg/mL | MPI [18]: 43 | IC50 (Titer in TZM.bl cells) [19]: 0.322 µg/mL | IC80 (Titer in TZM.bl cells) [19]: 0.583 µg/mL | MPI [19]: 100 | IC50 (Titer in TZM.bl cells) [20]: 0.113 µg/mL | IC80 (Titer in TZM.bl cells) [20]: 0.53 µg/mL | MPI [20]: 99 | IC50 (Titer in TZM.bl cells) [21]: 3.11 µg/mL | IC80 (Titer in TZM.bl cells) [21]: 13.9 µg/mL | MPI [21]: 99
